The values below are quoted from earlier work in article PMC6522352.

This data set has as its target IL-9 (Mus musculus) (UniProt P15247).
Sequence of UniProt P15247 (P15247 19-144): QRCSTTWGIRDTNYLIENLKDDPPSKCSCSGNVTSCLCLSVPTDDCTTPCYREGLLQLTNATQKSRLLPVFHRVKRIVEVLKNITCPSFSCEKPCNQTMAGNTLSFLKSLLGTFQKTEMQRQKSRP

For orientation: Kd means the concentration at which binding is half-saturated. On to “IL-9 receptor alpha (from UniProt Q01114)”, for which the dissociation constant Kd is 100 pM.
